From the supplement of paper PMC10126150
± gives the standard deviation of the averaged measurements.

Test system: ATP
Experiment: switch fluorescence ratio, 500 uM ATP over buffer (Cy3 cluster intensity, sum of 5 cycles each) (fold (ratio)); higher = stronger signal-on switching upon ATP binding; sequences stand for … in TCGTCGGCAGCGTCAGATGTGTATAAGAGACAGTTTTTTTTTTTTTTTTTTTTTTTTT…TC
Details: aptamer strand: ATP DNA aptamer (quencher-CACCTGGGGGAGTATTGCGGAGGAAGG + anchor), 100 nM annealed; ATP concentration: 500 uM
Method in brief: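 For every switch-domain sequence, the fluorescence ratio is the mean of per-cluster values, each being summed target-cycle Cy3 intensity over summed buffer-cycle Cy3 intensity. Clusters outside 100-1000 RFU were excluded. On a modified Illumina MiSeq flow-cell, the Cy3-labelled switching-strand clusters were annealed to 100 nM quencher-labelled ATP aptamer, imaged in selection buffer and then after 15 min with 500 uM ATP at 22 °C. Five such cycles were run, with NaOH stripping and re-annealing between them.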
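Note: ATP exposure 15 min at 22 °C before imaging.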

Sequence	switch fluorescence ratio
AAAAAAACCT	1.28 ± 0.39
AAAAAAAGAT	1.01 ± 0.039
AAAAAAGAAA	0.982 ± 0.015
AAAAAAGACG	1.05 ± 0.017
AAAAAATTGC	1.04 ± 0.058
AAAAAATTTT	1.01 ± 0.023
AAAAACATAG	1.03 ± 0.017
AAAAACGGGG	1.009 ± 0.0075
AAAAACGTAT	1.03 ± 0.04
AAAAACTAAT	0.992 ± 0.088
AAAAAGCTGG	1.03 ± 0.038
AAAAAGGATA	0.9884 ± 0.0013
AAAAAGTGCC	1.07 ± 0.11
AAAAAGTTTG	1 ± 0.04
AAAAATAGTT	1.03 ± 0.07
AAAAATCGAA	1.02 ± 0.05
AAAAATGACG	0.991 ± 0.028
AAAAATGGAG	0.958 ± 0.017
AAAAATTTGG	1 ± 0.06
AAAACACGCT	1.18 ± 0.2
AAAACAGTT	1.05 ± 0.02
AAAACCAGGG	1.08 ± 0.033
AAAACCAGTA	1.01 ± 0.075
AAAACCTCAC	1.56 ± 0.13
AAAACGACAG	1.04 ± 0.013

Sequence	switch fluorescence ratio
AAAACTTAGA	0.956 ± 0.041
AAAACTTAGG	0.978 ± 0.012
AAAACTTCCT	2.5 ± 0.67
AAAAGAGTGT	1.01 ± 0.023
AAAAGATAGC	0.989 ± 0.04
AAAAGATTGT	1.043 ± 0.0085
AAAAGCATGT	1.06 ± 0.03
AAAAGGAGGA	1.02 ± 0.043
AAAAGGATCT	1.02 ± 0.029
AAAAGGATTG	0.982 ± 0.04
AAAAGGGCAT	1.01 ± 0.015
AAAAGGGCTT	1 ± 0.012
AAAAGGGTGA	1.02 ± 0.01
AAAAGGTTTC	1.02 ± 0.024
AAAAGTCTGA	1.01 ± 0.041
AAAAGTGGGG	1.02 ± 0.019
AAAAGTGTCG	1.06 ± 0.056
AAAATAAATG	1.01 ± 0.017
AAAATAAGGA	0.986 ± 0.018
AAAATAATTG	1.03 ± 0.025
AAAATACATT	0.993 ± 0.039
AAAATACCTA	1.15 ± 0.14
AAAATAGGGG	1.04 ± 0.044
AAAATCATTG	0.9615 ± 0.0027
AAAATCGAGC	1.02 ± 0.015

Sequence	switch fluorescence ratio
AAAATCGAGG	1.016 ± 0.004
AAAATCGCGG	0.9844 ± 0.0018
AAAATCGTGA	1.009 ± 0.0097
AAAATGAAAA	0.987 ± 0.0071
AAAATGATGG	1 ± 0.0073
AAAATGGTAA	1.001 ± 0.0057
AAAATGTGGT	1 ± 0.015
AAAATGTGTT	1.01 ± 0.018
AAAATTAGGC	0.919 ± 0.063
AAAATTGGGA	1.01 ± 0.035
AAAATTTACG	1.1 ± 0.16
AAAATTTGGT	1.04 ± 0.029
AAAATTTTGC	1.12 ± 0.2
AAACACTAAG	1.08 ± 0.016
AAACAGCGTA	1.01 ± 0.032
AAACAGGGTG	1.05 ± 0.05
AAACATACCT	1.4 ± 0.078
AAACATAGGA	0.992 ± 0.063
AAACATATAT	1.018 ± 0.0098
AAACCAGGGG	1.54 ± 0.11
AAACCCGCCC	1.8128 ± 0.00028
AAACCGATGG	1.046 ± 0.0085
AAACGATATT	1.015 ± 0.0026
AAACGGACGC	1.2 ± 0.023
AAACGGAGTG	1 ± 0.023

Sequence	switch fluorescence ratio
AAACGGGCAG	0.985 ± 0.019
AAACGGTTAC	1.24 ± 0.038
AAACTATGGA	0.961 ± 0.022
AAACTGGAAA	0.99 ± 0.016
AAACTGGAG	1.04 ± 0.053
AAACTGGTAT	0.982 ± 0.02
AAACTGTTTC	1.02 ± 0.016
AAACTTAATC	1.04 ± 0.05
AAACTTGGCT	1.024 ± 0.0074
AAACTTTAGT	0.987 ± 0.018
AAAGAAAGAT	1.08 ± 0.17
AAAGAAAGTC	1.043 ± 0.006
AAAGAAGACG	1.0319 ± 0.00064
AAAGAATTTC	0.981 ± 0.038
AAAGACAAAT	0.999 ± 0.042
AAAGAGAATA	0.987 ± 0.036
AAAGAGACGC	1.03 ± 0.068
AAAGAGAGAA	0.9998 ± 0.0093
AAAGAGAGTT	0.9964 ± 0.0065
AAAGAGTCGT	0.9883 ± 0.0027
AAAGAGTGAA	0.9989 ± 0.009
AAAGAGTGAT	1.022 ± 0.0062
AAAGATATC	0.984 ± 0.02
AAAGATGAGG	0.974 ± 0.029
AAAGCAGGTA	0.989 ± 0.029

Sequence	switch fluorescence ratio
AAAGCAGTAT	1.14 ± 0.068
AAAGCCGCTG	1.02 ± 0.033
AAAGCCGTAG	1.003 ± 0.0082
AAAGCGAAGG	1.01 ± 0.044
AAAGCTCGTA	1.06 ± 0.054
AAAGCTGGGA	1.01 ± 0.019
AAAGCTTATT	0.99822 ± 0.00097
AAAGCTTGAT	1.01 ± 0.02
AAAGCTTTTC	1.07 ± 0.01
AAAGGACGAG	0.983 ± 0.019
AAAGGAGAGG	1.01 ± 0.05
AAAGGAGGTC	1.05 ± 0.033
AAAGGAGGTT	1 ± 0.028
AAAGGATAAT	1.01 ± 0.0077
AAAGGATAGC	1.017 ± 0.0044
AAAGGCGGTG	0.976 ± 0.023
AAAGGGAGAT	1.027 ± 0.0085
AAAGGGAGGA	1.02 ± 0.036
AAAGGGAGTA	0.999 ± 0.041
AAAGGGCCAG	1.02 ± 0.02
AAAGGGCGCA	1.02 ± 0.017
AAAGGGCTGT	1.01 ± 0.043
AAAGGGGAGT	1.04 ± 0.11
AAAGGGGGAG	0.997 ± 0.011
AAAGGGGGTT	1.04 ± 0.042

Sequence	switch fluorescence ratio
AAAGGGGTTA	1 ± 0.024
AAAGGGTAAC	0.988 ± 0.036
AAAGGGTGGG	1.01 ± 0.013
AAAGGTACGT	0.987 ± 0.021
AAAGGTAGAG	1.01 ± 0.04
AAAGGTCTGG	0.9794 ± 0.0049
AAAGGTTCAA	1.03 ± 0.011
AAAGGTTTGT	1.02 ± 0.024
AAAGTAGACA	1.005 ± 0.0063
AAAGTCTAAA	0.977 ± 0.015
AAAGTCTCGT	0.972 ± 0.018
AAAGTGATTA	1.01 ± 0.022
AAAGTGGTTC	1.04 ± 0.053
AAAGTGTGTT	0.993 ± 0.025
AAAGTTAATA	0.9897 ± 0.0064
AAAGTTACGT	1.01 ± 0.044
AAAGTTCGGG	0.982 ± 0.033
AAAGTTGCAG	1.02 ± 0.023
AAAGTTGTCT	1.01 ± 0.028
AAAGTTTGCG	1.04 ± 0.11
AAATAAAGCT	1.07 ± 0.073
AAATAAATTT	1.01 ± 0.055
AAATAACTAG	0.99 ± 0.015
AAATAACTTT	1.027 ± 0.0051
AAATAATGCA	0.9863 ± 0.0076

Sequence	switch fluorescence ratio
AAATAATGGT	1.02 ± 0.041
AAATAATGT	1.02 ± 0.016
AAATACCGTT	1.021 ± 0.0057
AAATACGGGA	1.17 ± 0.13
AAATAGGCA	0.981 ± 0.017
AAATAGGGCT	1.004 ± 0.0097
AAATAGGGGG	0.967 ± 0.026
AAATATCTCA	1.02 ± 0.013
AAATATCTCT	0.982 ± 0.048
AAATATCTGC	1.04 ± 0.029
AAATATGACT	1.06 ± 0.058
AAATCAAATT	1.007 ± 0.0055
AAATCAGTGG	0.998 ± 0.031
AAATCATATT	0.968 ± 0.0054
AAATCATTAA	1.02 ± 0.018
AAATCCTTGT	0.992 ± 0.039
AAATCGAGGT	0.9917 ± 0.0052
AAATCGATGG	0.9987 ± 0.0023
AAATCGCCTT	1.05 ± 0.02
AAATCGTCGG	0.991 ± 0.024
AAATCTCGT	0.995 ± 0.058
AAATCTTTAT	1.01 ± 0.032
AAATGAAAAC	0.98 ± 0.037
AAATGAACCG	1.06 ± 0.013
AAATGAGATT	1.002 ± 0.0048

Sequence	switch fluorescence ratio
AAATGCAGGT	0.9908 ± 0.0061
AAATGCCGAT	0.992 ± 0.015
AAATGCGGTA	1 ± 0.056
AAATGCTTG	0.983 ± 0.019
AAATGGGACT	1.03 ± 0.026
AAATGGGGGT	0.975 ± 0.011
AAATGGGTAC	0.9935 ± 0.0099
AAATGGGTTC	0.9874 ± 0.0083
AAATGGTGAT	1.035 ± 0.0041
AAATGGTGTA	0.983 ± 0.028
AAATGGTTGG	0.995 ± 0.025
AAATGTAAAA	1.01 ± 0.042
AAATGTCTAG	1.01 ± 0.037
AAATGTCTCT	1.01 ± 0.012
AAATGTTTAA	1.01 ± 0.019
AAATGTTTGT	1.006 ± 0.0099
AAATTAAAGG	1 ± 0.013
AAATTAGGAT	0.997 ± 0.039
AAATTAGGTC	0.95 ± 0.11
AAATTATTTC	0.989 ± 0.033
AAATTCAATG	0.995 ± 0.013
AAATTCATTA	0.981 ± 0.083
AAATTGCGAC	1.03 ± 0.026
AAATTGGACA	1.04 ± 0.049
AAATTGGGG	0.9583 ± 0.0056
